Assay [1] has as its target T1, Murine CTLA-4.ECD-6×His (mouse, UniProt P09793 36-161).
T1 construct: extracellular domain; Bought; also called mouse CTLA-4.ECD-6×His; mouse CTLA-4 ECD
Briefly: ELISA, coated mouse CTLA-4.ECD-6×His. The procedure:
ELISA was used to test binding of anti-human CTLA-4 antibodies to human, murine and cynomolgus monkey CTLA-4 protein. A 96-well plate was coated with human CTLA-4.ECD-6×His (1.0 μg/mL), cynomoguls monkey CTLA-4.ECD-6×His (0.5 μg/mL) or mouse CTLA-4.ECD-6×His (0.5 μg/mL) at 4° C. for 16-20 hours. After 1 hour blocking with 2% BSA in DBPS, testing antibodies, as well as positive and negative control antibodies were added to the plates and incubated at room temperature for 1 hour. The binding of the antibodies to the plates were detected by HRP-conjugated goat anti-human IgG antibody (1:5000 dilution) with 1 hour incubation. The color was developed by dispensing 100 μL of TMB substrate for 8 mins, and then stopped by 100 μL of 2N HCl.

Assay [2] has as its target T1, Murine CTLA-4.ECD-6×His. Description: SPR, antibody captured on anti-human Fc, CTLA-4.ECD-6×His as analyte, 1:1 fit. The gist of the method:
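Goat anti-human IgG Fcγ amine-coupled to a CM5 chip captured antibodies (4 μg/mL in HBS-EP+). CTLA-4-ECD-6×His was injected at a concentration series, with reference- and buffer-channel subtraction. Kinetics were fitted 1:1, and 10 mM glycine pH 1.5 regeneration was used after each dissociation.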
For orientation: In SPR one partner is held on a chip, and binding of the other changes the refractive index at the surface.

Another assay concerns the target T2, hCTLA4_ECD.His (N145Q) (human, UniProt P16410 36-161).
T2 construct: extracellular domain; Glycosylation-site mutein, expressed in HEK293F cells; also called CTLA-4 N145Q
T2 sequence (looked up): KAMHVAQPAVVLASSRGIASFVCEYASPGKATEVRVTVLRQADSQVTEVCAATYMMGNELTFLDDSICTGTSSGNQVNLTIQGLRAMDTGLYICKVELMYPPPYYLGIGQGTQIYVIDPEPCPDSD
Description: capture ELISA: W3162-1.146.19-z12 captured on anti-human Fc, hCTLA4-His mutein supernatant titrated (ng/ml), HRP-anti-His [B]. In general terms: An ELISA detects its analyte on a solid surface through an enzyme-linked reagent.

B1: W3162-1.146.19-z12-uAb.IgG1K (antibody, V domains shown)
VH: QVQLQESGPGLVKPSETLSLTCSVTYHTITSGYDWTWIRKPPGKGMEWIGYISYSGNTNYNPSLKSRVTISRDTSKNQFFLKLSSVTAADTAVYYCASMMVPHYYVMDAWGQGTLVTVSS
VL: DIVMTQTPLSLSVTPGQPASISCRSSQSLLNSDGNTYLYWYLQKPGQSPQLLIYLVSKLGSGVPNRFSGSGSGTDFTLKISRVEAEDVGVYYCVQGTHDPWTFGGGTKVEIK
notes: Humanized; label says IgG1K
As usually defined, the EC50 is the midpoint of the concentration-response curve. Higher therefore signals lower potency in that assay. For orientation: Kd means the free concentration of one partner at which half of the binding sites on the other are occupied at equilibrium, for simple one-to-one binding. A higher Kd goes with a looser complex. A word on the koff: it is a measure of how fast the partners let go of each other. A high value points to fast dissociation. What is called kon is the rate constant with which the complex forms. For orientation: EC50 (read off the curve) means the concentration needed to bring the measured effect to its halfway point. A high value points to lower potency in that assay. Regarding B1, the EC50 with Murine CTLA-4.ECD-6×His [1] was 0.19 nM. In the assay with Murine CTLA-4.ECD-6×His [2], this molecule yielded a Kd of 1.39 nM, a koff of 0.000239 s⁻¹ and a kon of 172000 M⁻¹ s⁻¹. The “EC50 (read off the curve)” value with hCTLA4_ECD.His (N145Q) is approximately 0.09 µg/mL.

For the origin of these results see patent US20200277377A1 (WUXI BIOLOGICS SHANGHAI, published 2020).
